Test: soluble on expression in E. coli; label from the status in PepcDB or PDB records

Sequence | soluble on expression in E. coli
MSANKELQQGYSDYSAASDQAALLNRLITAMQKGELTDELLEHIPELGDAKKLNDKLKYRKSILEKSIAEQAAKNKKNGVKATSTSSPSSSTSAPAEKKAKKDGKTGGAPPKQAKKVDYVTVEDYGSSIFGRLQSLFKKAIEDAFPGLDVPLLLAETPNPQFGDYQCNSAMPIAAKLKANKINKRPGDVAKEIQAKLPTKIDFVEKIDVMPAGFINIFLNTDYLRRQISLLASEGVKLPKLTRKRVLVDFSSPNIAKEMHVGHLRSTIIGDSICRLFEAVGFDVLRVNHIGDWGTQFGMLIAHLYDRFPDFLKKLPDISDLQAFYKESKKRFDEDEQFKKRAYEYVVKLQSHDGDIVKAWNTICDVSKKYNQIVYNYLDIKIKDVGESFYQDKMIELVKWVKTNKPDMLREEDGRQIMFPTGCDIPLTVVKSDGGFTYDTSDLAALKYRMLEEKCDWNIYVVDSGQSLHLETVYAAGRDFGWYDESIQRVEHVAFGLVLGDDKKKFKTRSGETVRLLDLLSEGVKRATEKLIEKGRETAMSEEQLVAARDAVAFGCVKYADLSHTRTQDYVFSFDRMLEDRGNTAVYLLYAYTRIQSIFEKDEVKNVDLVKYIASTPTLPLDHPGEFKLAKQLLKLSDCVLLVLDSLMLHQMCDYVYQLATLFHDFYNECYVIENKEGEKPFVHMHRLALCDVTRKVMSTCFKILGLREVNKM | not soluble
MSAPRLPVTVLTGFLGAGKTTLLSKLLENNKQRRLAILVNEFGEVSIDGGLLRDGENQGVEIHDLANGLVAYDDDADFLPTMLALWQRRQQIDHVLIETSGLALPSAVMAQLQSEALAPYFVLDATLAVVDTPLLLAGHFAPAGDGGKTDAVAALFDQQLGHADIVVLNKIDALSADQLLAAEEAVRKQAPSIRFIELAYEAKLDTRLTLGLHLHEASPAAHRHYGPVASMPGLAMRPLANQTLLDGHSHGGQAAHSHGLATHKHFHEQDPGWQSFMIRSKEPQCADKLAAALQAIAREEPLLRIKGFAACADSPGRLLAQGVRSRIELSRDDTLAAPRQAQLVFIGYHPSRPRVVALLRDITGAHWSLEHHHHHH | not soluble
MSARILVVDDIEANVRLLEAKLTAEYYEVSTAMDGPTALAMAARDLPDIILLDVMMPGMDGFTVCRKLKDDPTTRHIPVVLITALDGRGDRIQGLESGASDFLTKPIDDVMLFARVRSLTRFKLVIDELRQREASGRRMGVIAGAAARLDGLGGRVLIVDDNERQAQRVAAELGVEHRPVIESDPEKAKISAGGPVDLVIVNAAAKNFDGLRFTAALRSEERTRQLPVLAMVDPDDRGRMVKALEIGVNDILSRPIDPQELSARVKTQIQRKRYTDYLRNNLDHSLELAVTDQLTGLHNRRYMTGQLDSLVKRATLGGDPVSALLIDIDFFKKINDTFGHDIGDEVLREFALRLASNVRAIDLPCRYGGEEFVVIMPDTALADALRIAERIRMHVSGSPFTVAHGREMLNVTISIGVSATAGEGDTPEALLKRADEGVYQAKASGRNAVVGKAAHHHHH | soluble
MSARSLYQDTAVAALRDDLALALCAAAHHGLGEGVCNHFSVALPGQAGAFLLNPRGLMWSEVRAEDIVLVDAAGNKLAGRHEVEPTAMFIHAAIHQVAGKACVLHTHMPYATALTLTEARMLDTTLSQNAMRFHGRVAADRRYNGLALDAAEGERIARAMDGADIAFLGNHGVVVCGERIDYAFDDLYYLERACCAQVLAESSGRPLVPLDAALAASVAGQARSERLQSTLFFEALRRALGLEHHHHHH | not soluble
MSASDGDNTEQTGRRRSFGNLFGSTRVPFSSLSDIYANQSTFAKDQGVQSEVDVADAWSQHHAPTRDQYVQSEIITAVETSSQYEVQTKDKEVEAICSTANRTTQTCHATNIAGTNSESCLIEKLANSLLEHLQARRPIKARTAFPIYLQQPEQLQLLPPPDQQSAPVPPSHPLQNSEARQEDLEQTEMPQASQQIGINETSLNDADSQSFFHSRLHQTEQREETNSNSMQSIHSQVNPPASQETMESHFPEMINSRKSDHQLCFSFKKVTSERCSSFPTRHDGSSHFARSSSGLLGSMSSQQQRSQFPVPQEEGNQAEDMRGAQQPHNARNLFGGVGGMFPSMPNSSGGQGPDWQNNHFIRPFGQPAAGMMSWHPGMMPSHMNNSAAPSSFFESPFMPPYDVFMQQQMLLHSQYAAWEQQRNHAMMYQNAQNQNSANVNPSFADIPSAAPISQPEVNVNENQIVPEETERLEADLEIENTVDAIIVTDVGSVNQAVSGVNSIARETEEINNQDVRNETPVEDFGSIISAISITENRNESPMPSASETDDTSPHTSRSRYGSSVAISTGMKRARLEPSQSPPGSSRKNSRNETTKKNSKTPSSTIDKEPTSSKRTRKAPARYEAEWNAEQGGDTRRAKRWSKDFYKAPSKK | not soluble
MSATFSPTAVTDLKDIQDVERLMGRIKEARAAVGEVIFGQEAVVDEVLVTLLAGGHALLIGLPGLAKTKLVQTLGTVVGLRDKRVQFTPDLMPADILGSEVLEEDAAGQRGFRFLPGPVFCQLLMADEINRASPRTQSALLQAMQEHRVSVAGHYHDLPAPFHVLATQNPIEQEGTYPLPEAQLDRFLMQVDVGYPDEAAERRMLAATTGVHQPEARAVMTPAELQAAQALVRRVPVGDSVVDAILSLVRAGRPESSPLPEVRDWVAWGPGPRASQALTLAVRARALLDGRFAPSIEDVIALAHPILRHRMALSFGARADGVTLGRVVDRLIDKIA | soluble
MSAVLKKNKPFSILLMGTDTGALGRSDVGRTDTLMVATINPTKETAYLTSIPRDTRVTVGSGVNASVQKINAAYTIGGSKTAVKTVENLLDIPIDFYAIVNMGGLEKMVDAVGGVDVTPPLTFHYGAANVTKGKKTHLNGKQALAYSRMRHEDPLGDYGRQKRQRQVLQKMVVKAAGLSSITRYQTILKSLNGNLKTDLTFDDLMQIRAKYGDASHHIKSETLQGQDAMIDGLSYQVPTTSELKKVSNHIRKTLELANTTKFTTDADTDTTGSTAYGSSDNSGYGYLEHHHHHH | soluble
MSAVLNGKKPVSILLLGTDTGALGRNYKGRTDTIILATINPKTKTTTLMSLPRDSEVAVSGFEQDFPTKLNAAYAYGSAGTTIKTVQKWLNVPIDYYALINMGGMKKVVDEIGGVDITPIRTFTYEGYTFTKGQKEHMNGAKALAYSRMRYDDPLGDYGRQQRQRQLITAIIGESASASNLLKQDFLNSLAKQTRTDLTFGNLTSIVTNYRSATKNIVSDHAQGTGKMIDGQSFEVVSQSEKQRVTNVLRKSLNLKAATTGEKFANQNLEHHHHHH | soluble
MSAVPFPLLRLPNSALQKSLKEMRLVEQLSLSLLSENTMQLVRRFNRGRYFATITVVDSICVHLWTARCGQLFFKIKPDQSIRAVNILKSDSIATKFTMPKIPGFTVKKWLEHISHVFFSDTGATLRWMSSVRNIEETCEILKEVKIARLAINPSTVQDCQMRRLLPAIKELIVSDSTVHGSIVHWNLEKLSVFSTTMTLDDLLLSNCSDIAIGRNSLSHKNRNIFMRQWINGSNPRLQYFAMLMGFNGVQQLENTLFENIKYTETTVQGASTYKEFEIEGRDGRTAKIKLNTELTSRYFAMNVIF | not soluble
MSCDRKDEEKKETEEKKDDESKKKDEKKEEKSKRKEDEKKEKQNIAGAVYNQMRNTILMEEGSVISGRFEVKGIIGGGGFAQIYKAWDKVRKEDCAIKVEHESQDIRRMKLEITVLLALRGSMGIPEILAQGKWQHEDNKSHYIVMQLVGRNLSDVRRALPHKRITERTLYRAMIQVLKALSLVHGAGFLHRDLKPSNCCIGAIDCTRIYLIDYGLTRQYLDKGGIVRKPRAGVGLRGTVRYMSLDAHARQDLGPKNDLVAFLYTTIECGDGYLPWSHEKTHENIIKLKQAHIGDKLCTKQPVMTKAAEYIESLNYHSIPDYEKLLALMEECNPPDLKESEPYDWQYRHLPNGTPGGTKENVTERMAI | soluble
MSDAFTDVAKMKKIKEDIRAHEGQLVELTLENGRKREKNKIGRLIEVYSSLFIIEYSDSSDTPGAIDNSYVESYTYSDILTEKTLIRYLD | not soluble
MSDDEIGDGARAFNQLIQALSLSIETETAVRTFTEMLVSELDVHQLTEQALALLLQHTGADGGAILIEVDGEIRVAASQGIGSAHTLANNDRVRSALRTERRHRVQLPEDLVVDGMLAQFRPKEVIIDPVRHKEVVLGAVVLASGQGFSAEDRNRLDVFERGLALALHNALLYDRLQTLAALDPLEHHHHHH | not soluble
MSDEDERHRKKMKRKTCTGDSKSPAKKKQKIKDKSEEKSHAVQKHDAIGGKADSTKTKVKLSGKDKDKGKISKSAHSTEWTENDKKSSSDGGKKQIKRNEKGQLLFKDHPEFTPNMTPKEVLQAGSFGGTYFRPIYSSITKKHYKDVWKELPEDWLDGLNIPEQVASSTYREKVNTYKVKCGGSLEMWESSGWIVPQDPYGWFQWYCRFYQGRRTEDDARQISRWSKCAGVKGRWRNNLITKVVRSGCAYDNVTVSPVVRQTLQHWGYKLTPEDYKQGAKRVKLK | not soluble
MSDEIARLVADVFELAGLLRRSGEVVAAREGHTQARWQLLSVVSDRALTVPQAARRLGVTRQGVQRVANDLVVCGLAELRHNPDHRTSPLLVLTENGRRVLQAITERAIVVNNRLADAVDPAALQATRDSLRRMIVALKAERP | not soluble
MSDETFMREAIALARANVEAGGRPFGAVLVRDGRVLARGVNQIHETHDPSAHAELQAIRQASQALGSPRLDGCVIYASGHPCPMCLAAMHLCGIQAAWFAYSNEDGEAFGLSTATLYAEMARPPQRQSLPLRALRPAGEEGLYRQWRQRQA | not soluble
MSDGIPFAGEPADSHEAIMRATFRALREYGYAGLSIQRIADEADLSKSTFYHHFDGKEDLLLSFQEFILTEFNRIFQIESTGDPEQDIKTFVSLILDDFPDCVETPTKNAVLGSYVEMRAQAVQNPDFREKFTETDELFARQLVQIIEDGIEQGVFADVDPDTVSRFMITILDGVILQSATRNDNPVAEVRDTIDEYIEETLILNT | not soluble
MSDISRGDIRVKGFTDSEMDFQLIRQLGSSSYRAASVGECLNIANTMKNEDPEEWVRQFERLAEWQKKDGLERMVKNHVISGREQLFKASNSFRAAEYYSPPSSEHHRKLGLNSADCFCTAISSMDIHFENHSIPYKNINLPCYFISPANDGEKRDTVMIVSGFDGTLEEEFLMRGLAAVERGYNVIHFAGPGQMDVFRKYPDTYFEPDFEQVVKRIINYFEFRQEINMAKLTLMGISFGGYFATRAASHEPRIKVLIANSPILDLHAYMCSFVKMDPCEMPDSEDFSINDLPSIPNEVMPPQLKAQTEHLIRRFGQPTFKATFHYLREFTVGDSLNHIKIPCLALLGSGEGGEPGKQFAEFCKITNSAQYEFSDFEGAGSHCQVGNVSYSNAVVYDWLDSL | not soluble
MSDLHIPGTQSTPAIQGDWQAGRLSMQGDSYPENSYELFGQVIDWVERFLADGQRPLELDLRLLYLNTSSIKAMMDILDLLEEAHQGGRPVSLRWHYDRRNERVAELAEEFREDCSFPFAIQAHDE | not soluble
MSDPLHVTFVCTGNICRSPMAEKMFAQQLRHRGLGDAVRVTSAGTGNWHVGSCADERAAGVLRAHGYPTDHRAAQVGTEHLAADLLVALDRNHARLLRQLGVEAARVRMLRSFDPRSGTHALDVEDPYYGDHSDFEEVFAVIESALPGLHDWVDERLARNGPS | soluble
MSDPVADFLAREQNLFADFDGAPPAAAAANPDAPEADAPAPALDDDFGDLQIAGDEPPPVVHPTDSGVDLDGLVDDNAAAPAIVVPAVEPMVNGNHSASSGGSKGPSPILSTVPRIEAEKIRLWKAQQEQLLSKKDEAEEKKKIELRANAKKELEEWYKQREKTLQLSHDENLKNEKSNQELFAKQQDGDAQWETVNKLVDQQKSKSGKDLSRLKTLLAGLKHAGK | not soluble

From the DeepSol protein solubility set
